Measurements reported in IntAct's records for PubMed 29892012.

B1: Forkhead box protein P3 (Homo sapiens), Q9BZS1 (parent)
chain: MPNPRPGKPSAPSLALGPSPGASPSWRAAPKASDLLGARGPGGTFQGRDLRGGAHASSSSLNPMPPSQLQLPTLPLVMVAPSGARLGPLPHLQALLQDRPHFMHQLSTVDAHARTPVLQVHPLESPAMISLTPPTTATGVFSLKARPGLPPGINVASLEWVSREPALLCTFPNPSAPRKDSTLSAVPQSSYPLLANGVCKWPGCEKVFEEPEDFLKHCQADHLLDEKGRAQCLLQREMVQSLEQQLVLEKEKLSAMQAHLAGKMALTKASSVASSDKGSCCIVAAGSQGPVVPAWSGPREAPDSLFAVRRHLWGSHGNSTFPEFLHNMDYFKFHNMRPPFTYATLIRWAILEAPEKQRTLNEIYHWFTRMFAFFRNHPATWKNAIRHNLSLHKCFVRVESEKGAVWTVDELEFRKKRSQRPSRCSNPTPGP
B2: MOB kinase activator 3C (Homo sapiens), Q70IA8 (parent)
chain: MALCLKQVFAKDKTFRPRKRFEPGTQRFELYKKAQASLKSGLDLRSVVRLPPGENIDDWIAVHVVDFFNRINLIYGTMAERCSETSCPVMAGGPRYEYRWQDERQYRRPAKLSAPRYMALLMDWIEGLINDEEVFPTRVGVPFPKNFQQVCTKILTRLFRVFVHVYIHHFDSILSMGAEAHVNTCYKHFYYFIREFSLVDQRELEPLREMTERICH
partner: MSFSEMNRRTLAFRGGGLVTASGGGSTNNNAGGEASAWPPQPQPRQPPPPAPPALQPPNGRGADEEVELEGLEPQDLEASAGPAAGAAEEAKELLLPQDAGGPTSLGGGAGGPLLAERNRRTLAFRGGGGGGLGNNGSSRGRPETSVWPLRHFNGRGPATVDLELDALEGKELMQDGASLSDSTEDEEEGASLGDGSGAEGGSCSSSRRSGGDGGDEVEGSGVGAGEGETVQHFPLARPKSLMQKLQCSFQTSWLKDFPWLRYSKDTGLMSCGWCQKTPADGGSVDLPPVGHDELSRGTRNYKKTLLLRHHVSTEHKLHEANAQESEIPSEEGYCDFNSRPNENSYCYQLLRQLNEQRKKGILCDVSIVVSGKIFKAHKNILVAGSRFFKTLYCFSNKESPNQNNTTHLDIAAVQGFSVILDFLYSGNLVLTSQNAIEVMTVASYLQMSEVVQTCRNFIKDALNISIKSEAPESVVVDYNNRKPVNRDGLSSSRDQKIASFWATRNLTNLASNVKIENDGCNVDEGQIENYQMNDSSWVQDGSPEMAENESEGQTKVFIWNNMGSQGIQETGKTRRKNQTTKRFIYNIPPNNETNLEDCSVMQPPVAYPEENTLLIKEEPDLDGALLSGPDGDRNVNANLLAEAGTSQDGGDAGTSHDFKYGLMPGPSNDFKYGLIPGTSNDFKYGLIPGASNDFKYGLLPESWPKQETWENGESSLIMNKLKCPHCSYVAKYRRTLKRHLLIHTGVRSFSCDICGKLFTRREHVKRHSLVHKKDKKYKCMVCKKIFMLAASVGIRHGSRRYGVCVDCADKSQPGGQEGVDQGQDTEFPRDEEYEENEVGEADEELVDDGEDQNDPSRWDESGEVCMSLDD
B3: U3 small nucleolar RNA-associated protein 25 homolog (Homo sapiens), Q68CQ4 (parent)
chain: MGKRGSRSQSQLLNTLTKKQKKHLRDFGEEHPFYDRVSRKEAKPQICQLSESSDSSDSESDSESEPQQVSGYHRLLATLKNVSEEEEEDEEEEEEEDSIVDDAEMNDEDGGSDVSVEEEMAAESTESPENVALSADPEGKEDGEEPPGTSQTSPEEFTDAKHESLFSLETNFLEEESGDNSSLKASQDPFLQHVNKELKEKAIQAVATNPKTTHELKWPILGQLFFSSKFQKLETFKPPKDIDLKSLHLQKPLESTWTKTNSQFLSGPQKSSSPFTPLQKELFLIMNSYRDLFYPERTALKNGEEIRHVYCLHVINHILKANAQVLGNNSRRRSQKFGVGDDDDFRDQGLTRPKVLIVVPFREAALRVVQLFISLLEGDSKKKIIVSNKKRFQGEYGSDPEERPPNLKRPEDYEAVFVGNIDDHFRIGVAILQRSIRLYAPFYSSDILIASPLGLRTIIGGEGEKKRDFDFLSSIELLIIDQADIYLMQNWEHVLHLMNHMNLLPLDSHGVDFSRVRMWSLNNWSKYYRQTLLFGALQDAQINSVFNKYCVNMQGQVAVRNVPMTGSISHVLVQLPHVFQRMEAENLASVIDARFNFFVNKILPQYRDAVMSHTLIYIPSYFDFVRLRNYFKKEELNFTHICEYTQKSGVSRARHFFLQGEKQFLLFTERFHFYKRYTIKGIRNLIFYELPTYPHFYSEICNMLRATNRGEEATWTCTVLYSKYDAQRLAAVVGVERAAQMLQSNKNVHLFITGEK
partner: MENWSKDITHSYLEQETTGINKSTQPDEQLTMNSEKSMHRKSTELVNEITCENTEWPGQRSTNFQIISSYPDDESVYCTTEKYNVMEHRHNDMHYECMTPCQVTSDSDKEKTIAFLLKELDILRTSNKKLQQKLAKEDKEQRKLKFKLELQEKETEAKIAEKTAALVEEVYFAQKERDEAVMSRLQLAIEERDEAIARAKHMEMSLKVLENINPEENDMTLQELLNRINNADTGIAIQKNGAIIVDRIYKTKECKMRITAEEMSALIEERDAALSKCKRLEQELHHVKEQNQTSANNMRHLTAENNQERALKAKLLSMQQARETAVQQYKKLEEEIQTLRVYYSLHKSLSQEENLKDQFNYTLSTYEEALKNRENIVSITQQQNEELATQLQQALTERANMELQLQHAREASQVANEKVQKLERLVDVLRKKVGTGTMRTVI

Variants of: B1
Conditions: with pr20e_human PRR20E

Variant | effect of a mutation on the interaction
MPNPRPGKPSAPSLALGPSPGASPSWRAAPKASDLLGARGPGGTFQGRDLRGGAHASSSSLNPMPPSQLQLPTLPLVMVAPSGARLGPLPHLQALLQDRPHFMHQLSMVDAHARTPVLQVHPLESPAMISLTPPTTATGVFSLKARPGLPPGINVASLEWVSREPALLCTFPNPSAPRKDSTLSAVPQSSYPLLANGVCKWPGCEKVFEEPEDFLKHCQADHLLDEKGRAQCLLQREMVQSLEQQLVLEKEKLSAMQAHLAGKMALTKASSVASSDKGSCCIVAAGSQGPVVPAWSGPREAPDSLFAVRRHLWGSHGNSTFPEFLHNMDYFKFHNMRPPFTYATLIRWAILEAPEKQRTLNEIYHWFTRMFAFFRNHPATWKNAIRHNLSLHKCFVRVESEKGAVWTVDELEFRKKRSQRPSRCSNPTPGP [T108M] | with no effect

Variants of: B1
Conditions: with rbpms_human RBPMS

Variant | effect of a mutation on the interaction
MPNPRPGKPSAPSLALGPSPGASPSWRAAPKASDLLGARGPGGTFQGRDLRGGAHASSSSLNPMPPSQLQLPTLPLVMVAPSGARLGPLPHLQALLQDRPHFMHQLSMVDAHARTPVLQVHPLESPAMISLTPPTTATGVFSLKARPGLPPGINVASLEWVSREPALLCTFPNPSAPRKDSTLSAVPQSSYPLLANGVCKWPGCEKVFEEPEDFLKHCQADHLLDEKGRAQCLLQREMVQSLEQQLVLEKEKLSAMQAHLAGKMALTKASSVASSDKGSCCIVAAGSQGPVVPAWSGPREAPDSLFAVRRHLWGSHGNSTFPEFLHNMDYFKFHNMRPPFTYATLIRWAILEAPEKQRTLNEIYHWFTRMFAFFRNHPATWKNAIRHNLSLHKCFVRVESEKGAVWTVDELEFRKKRSQRPSRCSNPTPGP [T108M] | with no effect

Variants of: B2
Conditions: with zbt10_human ZBTB10, Q96DT7

Variant | effect of a mutation on the interaction
MALCLKQVFAKDKTFRPRKRFEPGTQRFELYKKAQASLKSGLDLRSVVRLPPGENIDDWIAVHVVDFFNRINLIYGTMAERCSETSCPVMAGGPRYEYRWQDERQYRRPAKLSAPRYMALLMDWIEGLINDEEVFPTRVGVPFPKNFQQVCTKILTRLFRVFVHVYIHHFDSFLSMGAEAHVNTCYKHFYYFIREFSLVDQRELEPLREMTERICH [I173F] | disrupting interaction strength

Variants of: B3
Conditions: with mipo1_human MIPOL1, Q8TD10

Variant | effect of a mutation on the interaction
D399E | with no effect
